The subject of this data set is MS2 coat protein. The data set is described as follows: apparent KD of MS2 coat protein; designed switch direction (-1 OFF switch, 1 ON switch): 1; higher = weaker reporter binding. In outline: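 Designed RNA switches were transcribed on Illumina chips by stalled E. coli RNA polymerase and titrated with SNAP-549-labelled MS2 coat protein from 0.7 or 1.5 nM, doubling to 3 µM. Step length ran from 0.8–1.5 h at the lowest concentration to 10–20 min at the highest. The apparent KD is the median over clusters for each design, from curve-fitted normalised cluster fluorescence.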

The mark [1] stands for this setting: Eterna round: R95, input ligand: FMN 200 uM.
Where [2] appears, read: Eterna round: R95, input ligand: microRNA oligo, concentration not stated.
[3] abbreviates: Eterna round: R95, input ligand: none.
The mark [4] stands for this setting: input ligand: microRNA oligo, concentration not stated.

For “AACAAUCUAUCUGAGGAUAUCAUGAAAUAAACAUGAGGAUCACCCAUGUGCAGGAAUACUGCAUAUGAGAAGGCAGAUAGAUUGA [salish99_ss2_r3_042] (puzzle: Same State 2)”, the “apparent KD of MS2 coat protein” value under setting [1] turned out to be 86 nM, the “apparent KD of MS2 coat protein” value under setting [2] turned out to be 1040 nM and the “apparent KD of MS2 coat protein” value under setting [3] was determined as 4050 nM.

For “AACAAUCUAUCUGAGGAUAUCAUGAUAAUAACAUGAGGAUCACCCAUGUGCAGGAAAACUGCAUAUGAGAAGGCAGAUAGAUUGG [Mat - Same State 2 - Mod - D20] (puzzle: Same State 2)”, the “apparent KD of MS2 coat protein” value was 100 nM under setting [1], 29.4 nM under setting [2] and 26.5 nM under setting [3].

Take “AACAAUCUAUUUGAGGAUAUCAUGAAAUAAACAUGAGGAUCACCCAUGUGCAGGAAAACUGCAUAUGAGAAGGCAGAUAGAUUGA [salish99_ss2_r3_025] (puzzle: Same State 2)”: the “apparent KD of MS2 coat protein” value under setting [1] was determined as 25.4 nM, the “apparent KD of MS2 coat protein” value under setting [2] was 30.2 nM and the “apparent KD of MS2 coat protein” value under setting [3] turned out to be 24.1 nM.

As to “AACCCACAUGAGGAUCACCCAUGUGUCUGAGGCACAGGAUAUCGACAGGCAAGACACCUGCGAGAAGGGUGACCUC [Same State 1 - Mod of Vinnie Diatater v.1] (puzzle: Same State 1)”, the “apparent KD of MS2 coat protein” value runs as follows: under setting [1], 18.4 nM; under setting [2], 8.17 nM; under setting [3], 27.9 nM.

For “AAGAAACAUGAGGAUCACCCAUGUAGAAAUAUGGGAGGAUAUACGAAGACGAAAGUCAAAGUAGAAGGCCUAAAAG [Mat - Same State 1 - Eli mod - D107] (Eterna round: R96, puzzle: Same State 1)”, the “apparent KD of MS2 coat protein” value is 23.4 nM (input ligand: FMN 200 uM), 54 nM under setting [4] and 110 nM (input ligand: none).

Consider “AAGAAACAUGAGGAUCACCCAUGUCGAAAUAACACAGGAUAUCGCACGACUACGGUGCGGCGAGAAGGGUGAGGAA [Estere] (puzzle: Same State 1)”, for which the “apparent KD of MS2 coat protein” value was 54.7 nM under setting [1], 78.4 nM under setting [2] and 94.7 nM under setting [3].

As for “AAGAGGUCCGCAGGAUAUACCCGGGCUCGCCGGGUAGAAGGGUGAACCUCAUAACCCACCACACACAUGAGGAUCACCCAUGUA [Tedile] (Eterna round: R96, puzzle: Same State NG 1)”, the “apparent KD of MS2 coat protein” value turned out to be 113 nM (input ligand: FMN 200 uM), 219 nM under setting [4] and 4.57 nM (input ligand: none).

For “AAUAAACAUGAGGAUCACCCAUGUAGUGCUUUAGCAGGAUAUGUGAGGAUCAAAUCCAUGGCAGAAGGGUUAUGGC [Inondiorbi] (puzzle: Same State 1)”, the “apparent KD of MS2 coat protein” value under setting [1] amounted to 20.1 nM, the “apparent KD of MS2 coat protein” value under setting [2] is 43 nM and the “apparent KD of MS2 coat protein” value under setting [3] stood at 67.1 nM.

On to “AAUAUUAAUGCAGGAUAUGAUUAACAUGAGGAUCACCCAUGUGGUGUUGUGAGUAAGGAGAGUGAUCAGAAGGGCAUUUUUUUU [JMF's solution 36] (Eterna round: R96, puzzle: Same State NG 2)”, for which the “apparent KD of MS2 coat protein” value (input ligand: FMN 200 uM) is 648 nM, the “apparent KD of MS2 coat protein” value under setting [4] is 349 nM and the “apparent KD of MS2 coat protein” value (input ligand: none) amounted to 529 nM.

On to “AAUUAAGAUCUAGGAUAUCACGUCGUUUAGACGUGAGAAGGAGAUCAUAACAUGAGGAUCACCCAUGUAUUACAUGAAUUAAUU [SSNG1/6-B3] (Eterna round: R96, puzzle: Same State NG 1)”, for which the “apparent KD of MS2 coat protein” value runs as follows: (input ligand: FMN 200 uM) 24.2 nM; under setting [4], 22.9 nM; (input ligand: none) 28.5 nM.

On to “AAUUAAUUAAUUAAGUACAUGAGGAUCACCCAUGUAAGUGAUCAGGAUAUCAGCUCGAAUAGAGCUGAGAAGGGAUCCAUGUAC [SSNG3/15-A1] (Eterna round: R96, puzzle: Same State NG 3)”, for which the “apparent KD of MS2 coat protein” value (input ligand: FMN 200 uM) stood at 332 nM, the “apparent KD of MS2 coat protein” value under setting [4] came out at 322 nM and the “apparent KD of MS2 coat protein” value (input ligand: none) stood at 375 nM.

As to “AAUUAUUCACAUGAGGAUCACCCAUGUGAUAUUAUUAUUACAAGCUUUUUGCUCGUCUUGUUCCUCAGUGAAUAAUU [Default title] (puzzle: Sensor for hsa-mir-208a version 2)”, the “apparent KD of MS2 coat protein” value under setting [1] came to 18.3 nM, the “apparent KD of MS2 coat protein” value under setting [2] was 74.5 nM and the “apparent KD of MS2 coat protein” value under setting [3] was found to be 15.9 nM.

As to “AAUUAUUGACAUGAGGAUCACCCAUGUAAAGCAUGGAUUAACAAGCUACAAGCUUUUUGCUCGUCUUAUCCUAUAGG [Improved Bojan's design] (puzzle: Sensor for hsa-mir-208a version 2)”, the “apparent KD of MS2 coat protein” value runs as follows: under setting [1], 55.9 nM; under setting [2], 34.6 nM; under setting [3], 58.1 nM.

Regarding “ACAAGACAUGAGGAUCACCCAUGUCCCAAUGACACAGGAUAUCGGUAGGCAUAGCCUACGCGAGAAGGGUGACUUC [Same State 1 - Mod of Vinnie Gere v.1] (puzzle: Same State 1)”, the “apparent KD of MS2 coat protein” value is 198 nM under setting [1], 68.3 nM under setting [2] and 73 nM under setting [3].

For “ACAAGCUUUUCUGCAUCGAAAGGUUGAUAACAUGAGGAUCACCCAUGUAAAUAUGAAAACGAUGCUCCUCGUCUUAU [JR_SHM208A_Sub095] (puzzle: Sensor for hsa-mir-208a)”, the “apparent KD of MS2 coat protein” value reads like this: under setting [1], 37.3 nM; under setting [2], 15.1 nM; under setting [3], 44.7 nM.

As for “ACAAGCUUUUUGCUCAUCUUAUGUCCGAAACAUGAGGAUCACCCAUGUGUAGAUUAUGUGUUGUUUUUGAUACGAGA [JR_SHM208A_Sub065] (puzzle: Sensor for hsa-mir-208a)”, the “apparent KD of MS2 coat protein” value under setting [1] came out at 68.1 nM, the “apparent KD of MS2 coat protein” value under setting [2] is 28.4 nM and the “apparent KD of MS2 coat protein” value under setting [3] is 80.3 nM.

For the sequence “ACACCACAUGAGGAUCACCCAUGUGUCAAUAACACAGGAUAUCACCCGGAAUACACCGGGUGAGAAGGGUGACCGA [Gesois] (puzzle: Same State 1)”, the “apparent KD of MS2 coat protein” value by setting is: under setting [1], 158 nM; under setting [2], 30.1 nM; under setting [3], 25.4 nM.

Regarding “ACAGAGGGAAGACAGGAUAUUCGCGAUGGCACAUGAGGAUCACCCAUGUUUUGAGCACAUAAACAGAAGAAGGGUUAAAACUCAG [Veceanve] (puzzle: Same State 2)”, the “apparent KD of MS2 coat protein” value is, setting by setting: under setting [1], 21.4 nM; under setting [2], 132 nM; under setting [3], 215 nM.

Take “ACAUGAGAAGGAGGAUAUUUUGUACCUACAUGUGACAUGAGGAUCACCCAUGUGGUAAGUAUGAGAAAGAAGGCCUAGAUAUGU [Equivalence 15 - Jieux - Same State NG 2] (Eterna round: R96, puzzle: Same State NG 2)”: the “apparent KD of MS2 coat protein” value runs as follows: (input ligand: FMN 200 uM) 21.3 nM; under setting [4], 21 nM; (input ligand: none) 36.3 nM.

As for “ACAUGAGACACAGGAUAUCAUGUACCUACAUGUGACAUGAGGAUCACCCAUGUGGUAAGUAUGACUGAGAAGGGUGAGAUAUGU [Equivalance 89 - Jieux - Same State NG 2] (Eterna round: R96, puzzle: Same State NG 2)”, the “apparent KD of MS2 coat protein” value is, setting by setting: (input ligand: FMN 200 uM) 369 nM; under setting [4], 394 nM; (input ligand: none) 962 nM.

For the origin of these results see the supplement of paper PMC9170038.
